# T1: TROP2 (human, UniProt P09758 27-323)
# T1 sequence (looked up): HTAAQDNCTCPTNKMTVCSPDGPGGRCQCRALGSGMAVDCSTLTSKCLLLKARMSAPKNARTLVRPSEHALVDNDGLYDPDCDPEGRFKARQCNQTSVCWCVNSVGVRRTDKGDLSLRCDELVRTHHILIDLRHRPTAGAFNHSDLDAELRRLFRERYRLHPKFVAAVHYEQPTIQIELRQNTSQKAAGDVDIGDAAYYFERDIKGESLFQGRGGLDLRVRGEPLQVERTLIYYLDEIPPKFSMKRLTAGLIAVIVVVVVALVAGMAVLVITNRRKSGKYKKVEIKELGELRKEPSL
# B1: ADC-5 (antibody, human IgG1, kappa, V domains shown)
# VH: QVQLQQSGSELKKPGASVKVSCKASGYTFTNYGMNWVKQAPGQGLKWMGWINTYTGEPTYTDDFKGRFAFSLDTSVSTAYLQISSLKADDTAVYFCARGGFGSSYWYFDVWGQGSLVTVSS
# VL: DIQLTQSPSSLSASVGDRVSITCKASQDVSIAVAWYQQKPGKAPKLLIYSASYRYTGVPDRFSGSGSGTDFTLTISSLQPEDFAVYYCQQHYITPLTFGAGTKVEIKR
# modifications: Linker-Payload 1 joined by Sortase A ligation at the C-terminal GALPETGG tag of the light chain (resulting sequence LPXTGn with n = 3, then linker-payload); DAR value 3.5
# B2: Ab2 (antibody, human IgG1, kappa, V domains shown)
# VH: QVQLQQSGSELKKPGASVKVSCKASGYTFTNYGMNWVKQAPGQGLKWMGWINTYTGEPTYTDDFKGRFAFSLDTSVSTAYLQISSLKADDTAVYFCARGGFGSSYWYFDVWGQGSLVTVSS
# VL: DIQLTQSPSSLSASVGDRVSITCKASQDVSIAVAWYQQKPGKAPKLLIYSASYRYTGVPDRFSGSGSGTDFTLTISSLQPEDFAVYYCQQHYITPLTFGAGTKVEIKR
# B3: ADC-6 (antibody, human IgG1, kappa, V domains shown)
# VH: QVQLQQSGSELKKPGASVKVSCKASGYTFTNYGMNWVKQAPGQGLKWMGWINTYTGEPTYTDDFKGRFAFSLDTSVSTAYLQISSLKADDTAVYFCARGGFGSSYWYFDVWGQGSLVTVSS
# VL: DIQLTQSPSSLSASVGDRVSITCKASQDVSIAVAWYQQKPGKAPKLLIYSASYRYTGVPDRFSGSGSGTDFTLTISSLQPEDFAVYYCQQHYITPLTFGAGTKVEIKR
# modifications: Linker-Payload 2 joined by Sortase A ligation at the C-terminal GALPETGG tag of the light chain; DAR value 3.6
# B4: ADC-7 (antibody, human IgG1, kappa, V domains shown)
# VH: QVQLQQSGSELKKPGASVKVSCKASGYTFTNYGMNWVKQAPGQGLKWMGWINTYTGEPTYTDDFKGRFAFSLDTSVSTAYLQISSLKADDTAVYFCARGGFGSSYWYFDVWGQGSLVTVSS
# VL: DIQLTQSPSSLSASVGDRVSITCKASQDVSIAVAWYQQKPGKAPKLLIYSASYRYTGVPDRFSGSGSGTDFTLTISSLQPEDFAVYYCQQHYITPLTFGAGTKVEIKR
# modifications: Linker-Payload 3 joined by Sortase A ligation at the C-terminal GALPETGG tag of the light chain; DAR value 3.6
# Tests used:
# [1] = first-phase clinical trial; cited from earlier work
# TROP2 [2] = target: T1, TROP2; test: cell-based or functional assay
# TROP2 [3] = target: T1, TROP2; test: cell-based or functional assay; remark: listed apart in the source
Molecule,patients with adverse events above Grade 3 [1] [%],patients with interstitial lung disease [1] [%],"IC50, inhibition of proliferation of TROP2-positive BxPC-3 cells (CellTiterGlo, 120 h) (TROP2 [2]) [nM]",Endocytosis by TROP2-positive tumor cells: Half Life (TROP2 [3]) [min],Endocytosis by TROP2-positive tumor cells: Maximum endocytosis (MFI) (TROP2 [3]),Endocytosis by TROP2-positive tumor cells: Maximum endocytosis rate (%) (TROP2 [3])
DS1062,48,8,–,–,–,–
B1,–,–,0.249,45.6,18600,46
B2,–,–,–,48.2,18500,46
B3,–,–,0.254,42.8,18200,45
B4,–,–,0.602,–,–,–
